Measured values from patent WO2016071355A1 (dated 2016).
Changes are numbered by the printed parent chain. Numbers in names are those of the source.

What was measured:
human CD38 on cells = human CD38 on cells (human, UniProt P28907 1-300); experiment: cell-based or functional assay
[1] = target: T1, soluble extracellular region of human CD38 fused to a 6-His-tag (human, UniProt P28907 43-300); experiment: SPR, antibody captured on protein G, CD38-His injected
T1 construct: also called human CD38 extracellular domain with a poly-histidine tag; human CD38 antigen

[2] = target: T1, soluble extracellular region of human …; experiment: SPR
[3] = target: T2, soluble extracellular region of cynomolgus monkey CD38 antigen fused to a 6-His-tag (cynomolgus monkey, UniProt Q5VAN0 45-301); experiment: SPR
T2 construct: also called cynomolgus CD38

Protein A = target: T3, Protein A (Staphylococcus aureus, UniProt P38507 212-269); experiment: protein A affinity chromatography
T3 construct: The resin ligand is a commercial recombinant Protein A derivative

Protein G = Protein G (UniProt P19909 303-497); experiment: protein G affinity chromatography, SDS-PAGE

B1: BEAT CD38-HB7bestfit/CD3 antibody (bispecific antibody, human IgG1, kappa, L234A L235A)
heavy: QVQLQESGPGLVKPSETLSLTCTVSGFSLISYGVHWVRQPPGKGLEWLGVIWRGGSTDYNAAFMSRLTISKDNSKNQVSLKLSSVTAADTAVYFCAKTLITTGYAMDYWGQGTLVTVSSASTKGPSVFPLAPSSKSTSGGTAALGCLVKDYFPEPVTVSWNSGALTSGVHTFPAVLQSSGLYSLSSVVTVPSSSLGTQTYICNVNHKPSNTKVDKKVEPKSCDKTHTCPPCPAPEAAGGPSVFLFPPKPKDTLMISRTPEVTCVVVDVSHEDPEVKFNWYVDGVEVHNAKTKPREEQYNSTYRVVSVLTVLHQDWLNGKEYKCKVSNKALPAPIEKTISKAKGQPREPAVYTLPPSRDELTKNQVKLVCLVTGFYPSDIAVEWESNGQPENNYYTTPPVLDSDGSFSLVSWLNVDKSRWQQGNVFSCSVMHEALHNHYTQKSLSLSPGK
light: DIQLTQSPSSLSASVGDRVTITCRASEDIYNRLAWYQQKPGKAPKLLISGATSLETGVPSRFSGSGSGKDYTLTISSLQPEDFATYYCQQYWSTPTFGQGTKLEIKRTVAAPSVFIFPPSDEQLKSGTASVVCLLNNFYPREAKVQWKVDNALQSGNSQESVTEQDSKDSTYSLSSTLTLSKADYEKHKVYACEVTHQGLSSPVTKSFNRGEC
scFv: EVQLVESGGGLVQPGGSLRLSCAASGYTFTRYTMHWVRQAPGKGLEWIGYINPSRGYTYYADSVKGRFTLSTDKSKNTAYLQMSSLRAEDTAVYYCARYYDDHYCLDYWGQGTLVTVSSGGGGSGGGGSGGGGSGGGASDIQLTQSPSSLSASVGDRVTITCRASSSVSYVAWYQQKPGKAPKRWIYDTSKLYSGVPSRFSGSGSGTDYTLTISSLQPEDFATYYCQQWSSNPPTFGQGTKVEIKGGGGTDKTHTCPPCPAPEAAGGPSVFLFPPKPKDTLMISRTPEVTCVVVDVSHEDPEVQFKWYVDGVEVHNAKTKPREEQYNSTFRVVSVLTVLHQDWLNGKEYKCKVSNKALPAPIEKTISKTKGQPREPEVATFPPSREEMTKNQVTLVCLVTGFYPSDIAVEWESSGQPENNYNTDPPLLESDGSFALSSRLRVDKSRWQQGNIFSCSVMHEALHNRFTQKSLSLSPGK
EC50, T cell redirected killing of RPMI 8226 myeloma cells (RDL-FACS, purified T cells, 48h) (human CD38 on cells): 0.0022 nM
Kd [1]: 3.2 nM

B2: BEAT CD38-HB7bestfit/CD3(SP34) antibody (bispecific antibody)
heavy: QVQLQESGPGLVKPSETLSLTCTVSGFSLISYGVHWVRQPPGKGLEWLGVIWRGGSTDYNAAFMSRLTISKDNSKNQVSLKLSSVTAADTAVYFCAKTLITTGYAMDYWGQGTLVTVSSASTKGPSVFPLAPSSKSTSGGTAALGCLVKDYFPEPVTVSWNSGALTSGVHTFPAVLQSSGLYSLSSVVTVPSSSLGTQTYICNVNHKPSNTKVDKKVEPKSCDKTHTCPPCPAPEAAGGPSVFLFPPKPKDTLMISRTPEVTCVVVDVSHEDPEVQFKWYVDGVEVHNAKTKPREEQYNSTFRVVSVLTVLHQDWLNGKEYKCKVSNKALPAPIEKTISKTKGQPREPAVYTLPPSREEMTKNQVKLVCLVTGFYPSDIAVEWESSGQPENNYYTTPPMLDSDGSFSLVSWLNVDKSRWQQGNIFSCSVMHEALHNRFTQKSLSLSPGK
light: B1 light
scFv: not shown
EC50, T cell redirected killing of Daudi cells (RDL-FACS, PBMCs, 24h) (human CD38 on cells): 0.0018 nM

B3: BEAT CD38-9G7Mouse/CD3 (bispecific antibody, human IgG1, kappa, L234A L235A)
heavy: not shown
light: DIVMTQSHKFMSTSVGDRVSISCKASQDVITSVAWFQQKPGQSPKLLIYSASYRYTGVPDRFTGSGSGTDFTFTISSVQAEDLAVYYCQQHYTIPLTFGAGTKLELKRTVAAPSVFIFPPSDEQLKSGTASVVCLLNNFYPREAKVQWKVDNALQSGNSQESVTEQDSKDSTYSLSSTLTLSKADYEKHKVYACEVTHQGLSSPVTKSFNRGEC
scFv: EVQLVESGGGLVQPGGSLRLSCAASGYTFTRYTMHWVRQAPGKGLEWIGYINPSRGYTYYADSVKGRFTLSTDKSKNTAYLQMSSLRAEDTAVYYCARYYDDHYCLDYWGQGTLVTVSSGGGGSGGGGSGGGGSDIQLTQSPSSLSASVGDRVTITCRASSSVSYVAWYQQKPGKAPKRWIYDTSKLYSGVPSRFSGSGSGTDYTLTISSLQPEDFATYYCQQWSSNPPTFGQGTKVEIKGGGGTDKTHTCPPCPAPEAAGGPSVFLFPPKPKDTLMISRTPEVTCVVVDVSHEDPEVQFKWYVDGVEVHNAKTKPREEQYNSTFRVVSVLTVLHQDWLNGKEYKCKVSNKALPAPIEKTISKTKGQPREPEVATFPPSREEMTKNQVTLVCLVTGFYPSDIAVEWESSGQPENNYNTDPPLLESDGSFALSSRLRVDKSRWQQGNIFSCSVMHEALHNRFTQKSLSLSPGK
EC50, killing of Daudi cells (flow cytometry, PBMCs, 48h) (human CD38 on cells): 0.0032 nM

B4: BEAT CD38-OKT10Mouse/CD3 (bispecific antibody, human IgG1, kappa, L234A L235A)
heavy: QVELVESGGSLKLSCAASGFDFSRSWMNWVRQAPGKGLEWIGEINPDSSTINYTTSLKDKFIISRDNAKNTLYLQMTKVRSEDTALYYCARYGNWFPYWGQGTLVTVSSASTKGPSVFPLAPSSKSTSGGTAALGCLVKDYFPEPVTVSWNSGALTSGVHTFPAVLQSSGLYSLSSVVTVPSSSLGTQTYICNVNHKPSNTKVDKKVEPKSCDKTHTCPPCPAPEAAGGPSVFLFPPKPKDTLMISRTPEVTCVVVDVSHEDPEVKFNWYVDGVEVHNAKTKPREEQYNSTYRVVSVLTVLHQDWLNGKEYKCKVSNKALPAPIEKTISKAKGQPREPAVYTLPPSRDELTKNQVKLVCLVTGFYPSDIAVEWESNGQPENNYYTTPPVLDSDGSFSLVSWLNVDKSRWQQGNVFSCSVMHEALHNHYTQKSLSLSPGK
light: DILMTQSQKIMPTSVGDRVSVTCKASQNVDTNVAWYQQKPGQSPKALIYSASYRYSGVPDRFTGSGSGTDFTLTITNVQSEDLAEYFCQQYDSYPLTFGAGTKLDLKRTVAAPSVFIFPPSDEQLKSGTASVVCLLNNFYPREAKVQWKVDNALQSGNSQESVTEQDSKDSTYSLSSTLTLSKADYEKHKVYACEVTHQGLSSPVTKSFNRGE
scFv: B3 scFv
EC50, killing of Daudi cells (flow cytometry, PBMCs, 48h) (human CD38 on cells): 0.126 nM

B5: humanized HB-7 best-fit antibody (antibody, human IgG1, kappa, V domains shown)
VH: QVQLQESGPGLVKPSETLSLTCTVSGFSLISYGVHWVRQPPGKGLEWLGVIWRGGSTDYNAAFMSRLTISKDNSKNQVSLKLSSVTAADTAVYFCAKTLITTGYAMDYWGQGTLVTVSS
VL: DIQLTQSPSSLSASVGDRVTITCRASEDIYNRLAWYQQKPGKAPKLLISGATSLETGVPSRFSGSGSGKDYTLTISSLQPEDFATYYCQQYWSTPTFGQGTKLEIKR
notes: Human IgG1 format
Kd [1]: 3.6 nM

B6: chimeric HB-7 antibody (antibody, human IgG1, kappa, V domains shown)
VH: KVQLQESGPSLVQPSQRLSITCTVSGFSLISYGVHWVRQSPGKGLEWLGVIWRGGSTDYNAAFMSRLSITKDNSKSQVFFKMNSLQADDTAIYFCAKTLITTGYAMDYWGQGTTVTVSS
VL: DIELTQSPSSFSVSLGDRVTITCKASEDIYNRLAWYQQKPGNAPRLLISGATSLETGVPSRFSGSGSGKDYTLSITSLQTEDVATYYCQQYWSTPTFGGGTKLEIKR
Kd [1]: 2.5 nM

B7: first humanized 9G7 antibody prototype (antibody, human IgG1, kappa, V domains shown)
VH: QVTLKESGPTLVKPTQTLTLTCTFSGLSLSTSGKGVGWIRQPPGKALEWLAHIWWDDDKRYNPALKSRLTITKDTSKNQVVLTMTNMDPVDTATYYCARIELGRSYVMDYWGQGTLVTVSS
VL: DIQMTQSPSSLSASVGDRVTITCQASQDVITSVAWFQQKPGKAPKLLIYSASYRYTGVPSRFSGSGSGTDFTFTISSLQPEDIATYYCQQHYTIPLTFGQGTKLEIKR
notes: Human IgG1 isotype; also called first antibody prototype; first humanized prototype
Kd [2]: 1 nM
fold lower binding than the mouse parental antibody [2]: 3 fold

B8: humanized 9G7 best-fit antibody (antibody, human IgG1, kappa, V domains shown)
VH: B7 VH
VL: B7 VL with F36Y
notes: Human IgG1; also called 9G7 best-fit F36Y humanized variant
Kd [3]: 3.2 nM
fold improvement of affinity over the first humanized prototype [2]: 2 fold
Kd [1]: 0.5 nM

B9: humanized 9G7 best-framework antibody (antibody, human IgG1, kappa, V domains shown)
VH: EVQLVESGGGLVQPGGSLRLSCAFSGLSLSTSGKGVGWIRQAPGKGLEWLAHIWWDDDKRYNPALKSRLTISKDTSKNTVYLQMNSLRAEDTAVYYCARIELGRSYVMDYWGQGTLVTVSS
VL: B7 VL with Q24R, F73L, I83F, L104V
notes: Human IgG1
Kd [3]: 1 nM
Kd [1]: 0.4 nM

B10: BTB homodimer construct lacking the VH3 based scFv (other)
chain: DKTHTCPPCPAPEAAGGPSVFLFPPKPKDTLMISRTPEVTCVVVDVSHEDPEVKFNWYVDGVEVHNAKTKPREEQYNSTYRVVSVLTVLHQDWLNGKEYKCKVSNKALPAPIEKTISKAKGQPREPEVATFPPSRDELTKNQVTLVCLVTGFYPSDIAVEWESNGQPENNYKTDPPLLESQGSFALSSRLRVDKSRWQQGNVFSCSVMHEALHNHYTQKSLSLSPGK
binding result (Protein A): no binding
binding result (Protein G): no binding
